Source: US20090214427

Key:
[1] = biological target: T1, synthetic peptide HK2p02 (AARRPFPAPS)
T1 chain: AARRPFPAPS

[2] = biological target: T2, synthetic peptide HK2p03 (PARRPFPVTA)
T2 chain: PARRPFPVTA

[3] = biological target: T3, synthetic peptide HK2p01 (SRFKVWWAAG)
T3 chain: SRFKVWWAAG

Measured: enzyme activity (chromogenic substrate)

B1: human plasmin (protein)
chain: KVYLSECKTGNGKNYRGTMSKTKNGITCQKWSSTSPHRPRFSPATHPSEGLEENYCRNPDNDPQGPWCYTTDPEKRYDYCDILECEEECMHCSGENYDGKISKTMSGLECQAWDSQSPHAHGYIPSKFPNKNLKKNYCRNPDRELRPWCFTTDPNKRWELCDIPRCTTPPPSSGPTYQCLKGTGENYRGNVAVTVSGHTCQHWSAQTPHTHNRTPENFPCKNLDENYCRNPDGKRAPWCHTTNSQVRWEYCKIPSCDSSPVSTEQLAPTAPPELTPVVQDCYHGDGQSYRGTSSTTTTGKKCQSWSSMTPHRHQKTPENYPNAGLTMNYCRNPDADKGPWCFTTDPSVRWEYCNLKKCSGTEASVVAPPPVVLLPDVETPSEEDCMFGNGKGYRGKRATTVTGTPCQDWAAQEPHRHSIFTPETNPRAGLEKNYCRNPDGDVGGPWCYTTNPRKLYDYCDVPQCAAPSFDCGKPQVEPKKCPGRVVGGCVAHPHSWPWQVSLRTRFGMHFCGGTLISPEWVLTAAHCLEKSPRPSSYKVILGAHQEVNLEPHVQEIEVSRLFLEPTRKDIALLKLSSPAVITDKVIPACLPSPNYVVADRTECFITGWGETQGTFGAGLLKEAQLPVIENKVCNRYEFLNGRVQSTELCAGHLAGGTDSCQGDSGGPLVCFEKDKYILQGVTSWGLGCARPNKPGVYVRVSRFVTWIEGVMRNN
showed no inhibition: [1] | [2] | [3]

B2: human trypsin 3 (protein)
chain: IVGGYTCEENSLPYQVSLNSGSHFCGGSLISEQWVVSAAHCYKTRIQVRLGEHNIKVLEGNEQFINAAKIIRHPKYNRDTLDNDIMLIKLSSPAVINARVSTISLPTTPPAAGTECLISGWGNTLSFGADYPDELKCLDAPVLTQAECKASYPGKITNSMFCVGFLEGGKDSCQRDSGGPVVCNGQLQGVVSWGHGCAWKNRPGVYTKVYNYVDWIKDTIAANS
showed no inhibition: [1] | [2] | [3]

B3: human trypsin 2 (protein)
chain: IVGGYICEENSVPYQVSLNSGYHFCGGSLISEQWVVSAGHCYKSRIQVRLGEHNIEVLEGNEQFINAAKIIRHPKYNSRTLDNDILLIKLSSPAVINSRVSAISLPTAPPAAGTESLISGWGNTLSSGADYPDELQCLDAPVLSQAECEASYPGKITNNMFCVGFLEGGKDSCQGDSGGPVVSNGELQGIVSWGYGCAQKNRPGVYTKVYNYVDWIKDTIAANS
showed no inhibition: [1] | [2] | [3]
